Measurements reported in IntAct's records for PubMed 22070932.

B1: DAZ-associated protein 2 (Homo sapiens), Q15038 (parent)
chain: MNSKGQYPTQPTYPVQPPGNPVYPQTLHLPQAPPYTDAPPAYSELYRPSFVHPGAATVPTMSAAFPGASLYLPMAQSVAVGPLGSTIPMAYYPVGPIYPPGSTVLVEGGYDAGARFGAGATAGNIPPPPPGCPPNAAQLAVMQGANVLVTQRKGNFFMGGSDGGYTIW
B2: DAZ-associated protein 2 (Homo sapiens), Q15038 (parent)
chain: B1 chain
partner: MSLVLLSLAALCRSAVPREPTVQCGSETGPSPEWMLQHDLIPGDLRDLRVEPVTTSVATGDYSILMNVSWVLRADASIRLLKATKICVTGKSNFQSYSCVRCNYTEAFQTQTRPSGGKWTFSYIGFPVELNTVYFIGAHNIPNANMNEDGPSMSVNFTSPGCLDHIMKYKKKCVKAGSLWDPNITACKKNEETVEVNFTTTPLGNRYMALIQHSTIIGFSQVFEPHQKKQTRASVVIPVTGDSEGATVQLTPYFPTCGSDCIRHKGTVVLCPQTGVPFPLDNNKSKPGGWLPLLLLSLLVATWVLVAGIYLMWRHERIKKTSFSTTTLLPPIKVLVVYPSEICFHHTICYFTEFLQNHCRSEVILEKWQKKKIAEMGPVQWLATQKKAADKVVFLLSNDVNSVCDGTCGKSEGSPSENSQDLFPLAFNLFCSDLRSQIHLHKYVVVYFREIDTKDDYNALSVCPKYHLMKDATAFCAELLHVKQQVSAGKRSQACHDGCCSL

Variants of: B1
Conditions: with smuf2_human SMURF2, Q9HAU4
Sequence of smuf2_human SMURF2, Q9HAU4 (Q9HAU4 whole entry): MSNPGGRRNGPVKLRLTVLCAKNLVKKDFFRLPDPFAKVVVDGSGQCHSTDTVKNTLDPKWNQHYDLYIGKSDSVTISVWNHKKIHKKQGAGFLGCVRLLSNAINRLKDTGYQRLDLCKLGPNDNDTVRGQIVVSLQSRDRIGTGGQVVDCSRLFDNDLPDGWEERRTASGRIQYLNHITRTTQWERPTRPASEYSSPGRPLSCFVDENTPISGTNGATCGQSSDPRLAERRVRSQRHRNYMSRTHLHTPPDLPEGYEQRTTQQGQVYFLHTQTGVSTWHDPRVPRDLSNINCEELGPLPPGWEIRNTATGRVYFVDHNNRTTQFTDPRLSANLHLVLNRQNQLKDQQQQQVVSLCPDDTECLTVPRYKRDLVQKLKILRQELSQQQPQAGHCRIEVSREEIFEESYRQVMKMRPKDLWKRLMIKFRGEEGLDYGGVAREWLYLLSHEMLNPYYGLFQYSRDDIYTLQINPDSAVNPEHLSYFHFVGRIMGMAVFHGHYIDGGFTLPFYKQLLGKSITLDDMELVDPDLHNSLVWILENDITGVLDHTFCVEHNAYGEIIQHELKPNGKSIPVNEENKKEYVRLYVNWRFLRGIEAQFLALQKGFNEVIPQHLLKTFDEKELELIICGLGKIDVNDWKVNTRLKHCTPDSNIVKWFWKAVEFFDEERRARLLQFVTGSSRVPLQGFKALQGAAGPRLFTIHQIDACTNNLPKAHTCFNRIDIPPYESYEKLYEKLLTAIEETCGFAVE

Variant	effect of a mutation on the interaction
Y42A	disrupting interaction strength

Variants of: B2
Conditions: with IL17RB

Variant	effect of a mutation on the interaction
Y42A	decreasing interaction strength
Y165A	decreasing interaction strength
Y42A;Y165A	disrupting interaction strength
